Among the data in publication PMC6328559 are Ka, Kd and stoichiometry N values, retold here.

The term Kd denotes the equilibrium constant for the complex coming apart. What is called stoichiometry N is a count of units in the complex or per binding partner.

The target of assay [1] is SLy1 SAM domain construct SAMwt (SLy1 residues P254-E321 with an N-terminal glycine from the tag) (mouse) (UniProt Q8K352). In words: AUC; sedimentation equilibrium, 30 °C, standard buffer (50 mM potassium phosphate, 20 mM NaCl, 0.1 mM EDTA, pH 6.4) without NaN3; three loading concentrations (SAMwt 60, 120, 300 µM; SAMlg 31, 64, 98 µM) at several speeds; global fit to a monomer-dimer equilibrium; dimer to monomers.

The target is the same in assay [2]. Put plainly: MST; Alexa Fluor 488 labelled protein kept constant (SAMwt 70 nM, SAMlg 60 nM), total protein varied (SAMwt 1.1-824 µM, SAMlg 0.2-250 µM); standard buffer pH 6.4, room temperature; fit to a monomer-dimer equilibrium; dimer to monomers.
The next assay addresses TEL SAM (Homo sapiens) (UniProt P41212). Conditions: cited from earlier work.
Assay [3] addresses Yan SAM (Drosophila melanogaster) (UniProt Q01842). The following applies: cited from earlier work.

Chain of TEL SAM (P41212 40-124): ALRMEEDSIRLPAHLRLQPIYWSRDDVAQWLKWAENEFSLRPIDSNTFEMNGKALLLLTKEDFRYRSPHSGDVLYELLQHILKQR
Chain of Yan SAM (Q01842 33-117): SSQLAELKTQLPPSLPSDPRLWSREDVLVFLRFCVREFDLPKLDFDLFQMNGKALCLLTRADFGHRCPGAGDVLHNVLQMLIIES

As to “SLy1 SAM domain construct SAMwt (SLy1 residues P254-E321 with an N-terminal glycine from the tag) (from UniProt Q8K352 254-321) (domain or fragment)”, in assay [1], the Ka stood at 8500 M⁻¹, the Kd is 117 µM and the stoichiometry N was found to be 2. In addition, the Kd in assay [2] turned out to be 153 µM.

Turning to TEL SAM (from UniProt P41212), in the assay with TEL SAM (Homo sapiens), the Kd was 0.0017 µM.

Yan SAM (from UniProt Q01842): the Kd in assay [3] is 11 µM.
